Results reported in article PMC10023680, “Targeting Ras-binding domain of ELMO1 by computational nanobody design” (Communications Biology, 2023).
Where a chain is given by its changes, count along the chain named. Names may count otherwise.

B1: GST-tagged ELMO1-RBD (residues 1-113), wild-type (domain or fragment, human, UniProt Q92556 1-113, looked up)
chain: MPPPADIVKVAIEWPGAYPKLMEIDQKKPLSAIIKEVCDGWSLANHEYFALQHADSSNFYITEKNRNEIKNGTILRLTTSPAQNAQQLHERIQSSSMDAKLEALKDLASLSRD
notes: the plasmids section describes only His-tagged ELMO1-RBD; also called ELMO1-RBD wild-type; not shown: GST, N-terminal, kept
B2: GST-tagged ELMO1-RBD (residues 1-113) N58A (domain or fragment, human, UniProt Q92556 1-113, looked up)
chain: B1 chain with N58A
notes: not shown: GST, N-terminal, kept
B3: GST-tagged ELMO1-RBD (residues 1-113) K20E (domain or fragment, human, UniProt Q92556 1-113, looked up)
chain: B1 chain with K20E
notes: as for B2
B4: GST-tagged ELMO1-RBD (residues 1-113) Y18A (domain or fragment, human, UniProt Q92556 1-113, looked up)
chain: B1 chain with Y18A
notes: as for B2
B5: Nb29 (VHH)
VHH: VQLVESGGGLVQAGDSLRLSCAASGLLFSFYIMGWFRQAPGREREFVAAIKWAGDTIYGTDSVKGRFAISRDNAKNTMYLQMNSLKPEDTAVYYCAADRFLTRSVKYTYWGQGTQVTVSS
notes: as Nb01 (designed from PDB 5LMW chain A) with S57A, R67T, T68I (CDR2) and D137T (CDR3) relative to Nb01; keeps Leu29 and Lys59; numbers count on: AHo numbering; S57A, R67T, T68I and D137T are stated against Nb01, not against the parent 5LMW; the old residues may themselves be designed ones; source: E. coli cell-free protein synthesis (with DsbC and GSSG), purified (Ni Sepharose)
B6: Nb02 (VHH)
VHH: B5 VHH with L27M, A49S, K51T, T56R, I57T, T108D
notes: designed from the parent nanobody chain A of PDB 5LMW; as Nb01 but with T29M and S59T instead of T29L and S59K; numbers count on: AHo numbering; source: E. coli cell-free protein synthesis (with DsbC and GSSG), purified (Ni Sepharose)
B7: Nb29 (VHH)
VHH: B5 VHH
notes: It is Nb01 with S57A, R67T, T68I (CDR2) and D137T (CDR3); S57A, R67T, T68I and D137T are stated against Nb01, not against 5LMW; Numbers count on: AHo numbering; A TEV cleavage site follows the N-terminal poly-histidine tag, but no cleavage is described for the nanobodies; source: E. coli cell-free protein synthesis, purified (Ni Sepharose resin)
B8: ELMO1-RBD (residues 1-82) (domain or fragment, human, UniProt Q92556 1-82, looked up)
chain: MPPPADIVKVAIEWPGAYPKLMEIDQKKPLSAIIKEVCDGWSLANHEYFALQHADSSNFYITEKNRNEIKNGTILRLTTSPA

How the values were obtained:
Conditions in all cases: both partners purified
RhoG (residues 1-184) [1] = molecular target: T1, RhoG (residues 1-184) (human, UniProt P84095 1-184); test: SPR; Biacore T200; GST-ELMO1-RBD (1-113, wild-type or mutants) captured on CM5 chip with GST Capture Kit; GTPγS-bound RhoG injected at 2.2-35.5 μM (Rac1 and Cdc42 measured similarly); 10 mM HEPES pH 7.5, 150 mM NaCl, 1 mM MgCl2, 0.005% P-20; steady-state affinity analysis
T1 construct: human RhoG, residues 1-184; Loaded with GTPγS for the SPR assays; also called active RhoG; source: Sf9 (baculovirus), purified (HisTrap, TEV, Superdex 75); not shown: poly-histidine tag, N-terminal, cleaved
T1 sequence (P84095 1-184): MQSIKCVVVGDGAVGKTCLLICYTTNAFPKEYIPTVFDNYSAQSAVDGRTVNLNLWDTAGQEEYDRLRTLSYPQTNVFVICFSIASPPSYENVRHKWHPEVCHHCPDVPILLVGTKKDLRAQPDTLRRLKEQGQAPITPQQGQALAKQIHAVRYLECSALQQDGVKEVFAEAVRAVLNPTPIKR

[2] = molecular target: ELMO1-RBD (residues 1-98) (Homo sapiens, UniProt Q92556); test: SPR; Biacore T200; ELMO1-RBD (1-98) amine-coupled to CM5 chip; nanobody designs injected at five concentrations (0.5-8 μM); 10 mM HEPES pH 7.5, 150 mM NaCl, 0.005% P-20; single-cycle kinetic analysis
[3] = molecular target: T2, ELMO1-RBD (residues 1-98) (Homo sapiens, UniProt Q92556); test: SPR; ELMO1-RBD (residues 1-98) immobilised on a CM5 chip by amine coupling; 10 mM HEPES pH 7.5, 150 mM NaCl, 0.005% surfactant P-20; five concentrations (0.5-8 uM) of each nanobody injected continuously; single-cycle kinetic analysis; Biacore T200
T2 construct: source: E. coli cell-free protein synthesis, purified (HisTrap, HiTrap Q, Superdex 75); not shown: histidine tag, N-terminal, cleaved

RhoG (residues 1-184) [4] = molecular target: T1, RhoG (residues 1-184); test: crystal structure; equimolar ELMO1-RBD (residues 1-82) and RhoG mixed at 16 mg/ml, 4 °C for 4 h; hanging-drop vapor diffusion at 20 °C; 1.6 Å

Row | Binder | binding result (RhoG (residues 1-184) [1]) | other results
1 | B1 | binds | –
2 | B2 | binds | –
3 | B3 | binds | –
4 | B4 | binds | –
5 | B5 | – | Kd [2]: 2 µM
6 | B6 | – | binding result [2]: no binding (tested: 0.5-8 μM)
7 | B7 | – | Kd [3]: 2.02 µM
8 | B8 | – | binding result (RhoG (residues 1-184) [4]): binds
